Biological target: the molecule itself
Assay: SEC

B1: YdjI (enzyme, E. coli K12)
chain: MLADIRYWENDATNKHYAIAHFNVWNAEMLMGVIDAAEEAKSPVIISFGTGFVGNTSFEDFSHMMVSMAQKATVPVITHWDHGRSMEIIHNAWTHGMNSLMRDASAFDFEENIRLTKEAVDFFHPLGIPVEAELGHVGNETVYEEALAGYHYTDPDQAAEFVERTGCDSLAVAIGNQHGVYTSEPQLNFEVVKRVRDAVSVPLVLHGASGISDADIKTAISLGIAKINIHTELCQAAMVAVKENQDQPFLHLEREVRKAVKERALEKIKLFGSDGKAE
modifications: Cys234 oxidized to cysteic acid (seen in the electron density of each subunit)
  stoichiometry N: 4

From PMC6850750 (Biochemistry, 2019)
